Positions count from the first letter of the chain named. Values joined by “and” are separate entries in the source; they are usually repeats but may differ in a detail not shown here. Identical values can stand only once. Values belong to the binder of their own block, whether it stands above or below them.
Biological target: RSV F protein (immobilised antigen of Example 6.1) (respiratory syncytial virus)
Assay: BIAcore

RSV F protein (immobilised antigen of Example 6.1) (respiratory syncytial virus), sequence (P03420 26-524): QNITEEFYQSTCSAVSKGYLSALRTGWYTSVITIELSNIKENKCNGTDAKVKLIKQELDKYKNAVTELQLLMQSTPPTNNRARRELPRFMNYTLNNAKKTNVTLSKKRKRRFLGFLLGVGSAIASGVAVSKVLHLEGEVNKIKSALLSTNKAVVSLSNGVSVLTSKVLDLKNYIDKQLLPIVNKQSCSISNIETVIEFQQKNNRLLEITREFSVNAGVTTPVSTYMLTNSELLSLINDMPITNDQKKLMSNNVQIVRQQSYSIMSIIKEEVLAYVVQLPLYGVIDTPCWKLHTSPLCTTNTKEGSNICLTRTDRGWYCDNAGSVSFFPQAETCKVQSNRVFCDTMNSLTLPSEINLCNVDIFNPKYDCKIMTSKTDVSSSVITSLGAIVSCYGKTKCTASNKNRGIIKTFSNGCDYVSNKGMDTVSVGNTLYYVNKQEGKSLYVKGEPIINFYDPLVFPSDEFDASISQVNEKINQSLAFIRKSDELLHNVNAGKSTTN

B1: H3-3F4 Fab (Fab, V domains shown)
VH: QVTLRESGPALVKPTQTLTLTCTFSGFSLSTAGMSVGWIRQPPGKALEWLADIWWDDKKDYNPSLKSRLTISKDTSKNQVVLKVTNMDPADTATYYCARDMIFNWYFDVWGQGTTVTVSS
VL: DIQMTQSPSTLSASVGDRVTITCSASSSVGYMHWYQQKPGKAPKLLIYDTFKLASGVPSRFSGSGSGTEFTLTISSLQPDDFATYYCFQGSGYPFTFGGGTKVEIK
koff: 0.000445 s⁻¹ and 0.000402 s⁻¹

B2: L1-7E5 Fab (Fab, V domains shown)
VH: B1 VH with F103T, W105F
VL: B1 VL with S28R
koff: 0.000192 s⁻¹ and 0.000331 s⁻¹ and 0.000229 s⁻¹

B4: DG (aka D95/G93) Fab (Fab, V domains shown)
VH: B1 VH with F103T, W105F
VL: B1 VL
koff: 0.000167 s⁻¹ and 0.000444 s⁻¹

B6: P12f4 Fab (Fab, V domains shown)
VH: B1 VH with A32P, D57G, D60H, S67D, W105F
VL: B1 VL with A25L, S28R, F51R, K52G, A54P
koff: 0.000299 s⁻¹
kon: 527000 M⁻¹ s⁻¹

Results, then the binder that gave them:

koff: 0.000338 s⁻¹
kon: 605000 M⁻¹ s⁻¹
B3: M3H9 Fab (Fab, V domains shown)
VH: B1 VH
VL: B1 VL with F51Y, L53Q, A54T

koff: 0.000178 s⁻¹ and 0.000473 s⁻¹
kon: 314000 M⁻¹ s⁻¹ and 444000 M⁻¹ s⁻¹
B5: 6H8 Fab (Fab, V domains shown)
VH: B1 VH with F103T, W105F
VL: B1 VL with A54T

koff: 0.000462 s⁻¹
kon: 757000 M⁻¹ s⁻¹
B7: Y10H6 Fab (Fab, V domains shown)
VH: B1 VH
VL: B1 VL with F51R, K52Y, A54S

From US20100098708A1
